Data taken from IntAct's records for PubMed 18354501.
Values belong to the substance of their own block, whether it stands above or below them.

Key:
t2ea_human GTF2E1 [1] = biological target: t2ea_human GTF2E1 (UniProt P29083)
t2ea_human GTF2E1 [2] = biological target: t2ea_human GTF2E1 (UniProt P29083); remark: listed apart in the source
t2ea_human GTF2E1 [3] = biological target: t2ea_human GTF2E1 (UniProt P29083); remark: listed apart in the source
t2ea_human GTF2E1 [4] = biological target: t2ea_human GTF2E1 (UniProt P29083); remark: listed apart in the source
t2ea_human GTF2E1 [5] = biological target: t2ea_human GTF2E1 (UniProt P29083); remark: listed apart in the source
t2ea_human GTF2E1 [6] = biological target: t2ea_human GTF2E1 (UniProt P29083); remark: listed apart in the source

Chain of t2ea_human GTF2E1 (P29083 whole entry): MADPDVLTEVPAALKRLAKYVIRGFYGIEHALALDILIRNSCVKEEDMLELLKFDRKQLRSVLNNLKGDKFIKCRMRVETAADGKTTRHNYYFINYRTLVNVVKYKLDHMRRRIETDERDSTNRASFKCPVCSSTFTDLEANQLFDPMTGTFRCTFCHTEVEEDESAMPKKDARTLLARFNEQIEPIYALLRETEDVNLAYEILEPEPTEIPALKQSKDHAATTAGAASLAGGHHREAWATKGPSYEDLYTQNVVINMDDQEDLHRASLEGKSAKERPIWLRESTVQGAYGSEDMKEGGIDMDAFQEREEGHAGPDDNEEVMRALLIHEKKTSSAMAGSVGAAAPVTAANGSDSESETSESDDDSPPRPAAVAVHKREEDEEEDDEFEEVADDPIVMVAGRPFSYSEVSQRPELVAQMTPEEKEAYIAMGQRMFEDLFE
Chain of General transcription factor IIH subunit 1 (Homo sapiens), P32780 Q66A (P32780 whole entry Q66A): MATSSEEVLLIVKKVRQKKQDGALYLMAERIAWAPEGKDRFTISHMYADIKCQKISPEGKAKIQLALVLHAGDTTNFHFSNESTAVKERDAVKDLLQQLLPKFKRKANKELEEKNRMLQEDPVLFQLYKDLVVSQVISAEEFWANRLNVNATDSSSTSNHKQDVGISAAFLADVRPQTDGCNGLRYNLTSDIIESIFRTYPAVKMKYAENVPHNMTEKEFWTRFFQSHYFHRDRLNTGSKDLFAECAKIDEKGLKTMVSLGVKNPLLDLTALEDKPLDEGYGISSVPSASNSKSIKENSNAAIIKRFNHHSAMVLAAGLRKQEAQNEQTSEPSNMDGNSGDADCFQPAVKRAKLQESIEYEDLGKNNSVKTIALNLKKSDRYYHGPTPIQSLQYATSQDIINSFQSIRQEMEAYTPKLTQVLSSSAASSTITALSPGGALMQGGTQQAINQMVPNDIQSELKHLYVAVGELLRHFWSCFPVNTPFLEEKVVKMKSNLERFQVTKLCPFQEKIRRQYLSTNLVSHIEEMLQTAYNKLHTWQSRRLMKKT
Chain of General transcription factor IIH subunit 1 (Homo sapiens), P32780 K18A (P32780 whole entry K18A): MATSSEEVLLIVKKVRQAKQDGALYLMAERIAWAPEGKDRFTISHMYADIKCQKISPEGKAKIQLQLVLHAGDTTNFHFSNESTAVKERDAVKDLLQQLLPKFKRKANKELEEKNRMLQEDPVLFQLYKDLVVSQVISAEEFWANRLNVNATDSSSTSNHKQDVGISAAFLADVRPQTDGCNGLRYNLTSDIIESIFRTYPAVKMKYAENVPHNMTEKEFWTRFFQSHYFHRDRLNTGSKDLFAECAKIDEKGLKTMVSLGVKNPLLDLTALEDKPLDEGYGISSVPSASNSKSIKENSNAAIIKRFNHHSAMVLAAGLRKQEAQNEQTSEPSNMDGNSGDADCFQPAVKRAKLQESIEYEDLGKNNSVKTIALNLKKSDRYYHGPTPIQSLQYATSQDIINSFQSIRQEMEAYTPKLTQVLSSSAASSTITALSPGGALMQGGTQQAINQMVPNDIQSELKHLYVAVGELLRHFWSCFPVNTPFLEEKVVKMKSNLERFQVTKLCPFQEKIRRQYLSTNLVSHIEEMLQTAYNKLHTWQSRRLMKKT
Chain of General transcription factor IIH subunit 1 (Homo sapiens), P32780 K19A (P32780 whole entry K19A): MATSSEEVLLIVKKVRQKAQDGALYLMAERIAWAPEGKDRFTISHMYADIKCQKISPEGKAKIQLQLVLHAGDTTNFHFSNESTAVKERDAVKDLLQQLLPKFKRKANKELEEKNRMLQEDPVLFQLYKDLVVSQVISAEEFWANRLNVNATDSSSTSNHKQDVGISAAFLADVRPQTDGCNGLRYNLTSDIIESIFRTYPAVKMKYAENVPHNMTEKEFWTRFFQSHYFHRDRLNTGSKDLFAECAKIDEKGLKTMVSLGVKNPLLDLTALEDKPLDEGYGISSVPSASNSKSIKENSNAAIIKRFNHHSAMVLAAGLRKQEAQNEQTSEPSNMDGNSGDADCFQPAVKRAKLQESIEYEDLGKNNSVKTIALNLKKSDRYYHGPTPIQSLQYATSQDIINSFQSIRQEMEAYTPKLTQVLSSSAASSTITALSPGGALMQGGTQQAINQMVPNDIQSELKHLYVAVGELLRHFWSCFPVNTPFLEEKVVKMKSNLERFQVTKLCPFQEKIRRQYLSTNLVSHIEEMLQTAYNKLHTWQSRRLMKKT
Chain of General transcription factor IIH subunit 1 (Homo sapiens), P32780 V68A (P32780 whole entry V68A): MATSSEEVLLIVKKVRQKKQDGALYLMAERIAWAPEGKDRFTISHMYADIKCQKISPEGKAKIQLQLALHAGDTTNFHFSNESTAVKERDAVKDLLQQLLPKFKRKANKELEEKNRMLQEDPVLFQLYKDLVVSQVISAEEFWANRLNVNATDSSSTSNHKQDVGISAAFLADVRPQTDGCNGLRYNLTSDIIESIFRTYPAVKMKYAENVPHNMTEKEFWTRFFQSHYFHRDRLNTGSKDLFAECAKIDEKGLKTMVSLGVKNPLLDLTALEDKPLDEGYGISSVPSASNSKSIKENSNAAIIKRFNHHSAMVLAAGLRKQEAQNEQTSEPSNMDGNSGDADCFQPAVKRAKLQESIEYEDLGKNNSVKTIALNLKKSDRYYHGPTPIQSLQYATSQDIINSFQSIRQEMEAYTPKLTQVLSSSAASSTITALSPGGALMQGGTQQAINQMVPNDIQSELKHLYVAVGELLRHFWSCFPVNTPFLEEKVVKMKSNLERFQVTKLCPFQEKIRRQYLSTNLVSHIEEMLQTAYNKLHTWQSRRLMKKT
Chain of General transcription factor IIH subunit 1 (Homo sapiens), P32780 K54A (P32780 whole entry K54A): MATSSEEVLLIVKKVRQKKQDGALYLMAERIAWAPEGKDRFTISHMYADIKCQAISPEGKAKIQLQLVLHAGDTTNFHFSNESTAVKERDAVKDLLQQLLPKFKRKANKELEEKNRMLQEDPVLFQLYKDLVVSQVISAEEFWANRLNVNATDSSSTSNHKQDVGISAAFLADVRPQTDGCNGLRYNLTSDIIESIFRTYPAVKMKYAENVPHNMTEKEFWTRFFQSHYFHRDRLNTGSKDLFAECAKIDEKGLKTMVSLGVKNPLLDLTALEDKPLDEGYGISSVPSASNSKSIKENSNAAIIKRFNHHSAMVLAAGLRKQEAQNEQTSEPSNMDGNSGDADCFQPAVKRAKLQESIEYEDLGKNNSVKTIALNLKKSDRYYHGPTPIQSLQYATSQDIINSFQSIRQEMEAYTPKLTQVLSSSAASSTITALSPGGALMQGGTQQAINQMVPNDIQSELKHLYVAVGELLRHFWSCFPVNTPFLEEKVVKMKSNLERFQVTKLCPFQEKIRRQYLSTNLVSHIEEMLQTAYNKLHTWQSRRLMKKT

effect of a mutation on the interaction (t2ea_human GTF2E1 [1]): decreasing interaction
Substance: General transcription factor IIH subunit 1 (Homo sapiens), P32780 V68A

effect of a mutation on the interaction (t2ea_human GTF2E1 [2]): disrupting interaction
Substance: General transcription factor IIH subunit 1 (Homo sapiens), P32780 K19A

More lines, now with the values behind:

Substance: General transcription factor IIH subunit 1 (Homo sapiens), P32780 Q66A
effect of a mutation on the interaction (t2ea_human GTF2E1 [3]): disrupting interaction
effect of a mutation on the interaction (t2ea_human GTF2E1 [4]): decreasing interaction

Substance: General transcription factor IIH subunit 1 (Homo sapiens), P32780 K18A
effect of a mutation on the interaction (t2ea_human GTF2E1 [5]): decreasing interaction

Substance: General transcription factor IIH subunit 1 (Homo sapiens), P32780 K54A
effect of a mutation on the interaction (t2ea_human GTF2E1 [6]): disrupting interaction
